Measurements published in a protein production outcome set (Wang et al. 2014).

Experiment: label from the status in PepcDB records
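Further: failed if final PepcDB status was selected cloned or expressed and not failed if soluble or beyond.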

| Sequence | protein production |
| --- | --- |
| MAPMIPHPPAVLAHRLSEGQRLATPLMRALMRATGTQVDAAIARTIAELGAHCGADRTRVYRIEAGQVLDCTHEWCRSGISEIRPEMQRIPLGTLDRWMPILRRGEPVDVPDLHGLPEDDPAKQQMARHGIRALVLMPLTAGTALTGVVGLSLFRARRPVDPAEMALLHSIAEAMGAALARRDAERRAVAARSAARDVARNLERLARVTELMTNLVIVTDVEQQIVWVNRAFERQTGHSLEAIRGRNFAEVVRGPGTDPGVCAAVAEAIRTCSSCEGETINYTAAGQPYWIRFNAHPLSDADGRYAGHASVETVITDRKVLERELATRNAFLTAVLQTSVSAIVALNAEGGIVYANDEARRLLVLQPHRGGLRMEAVLETLDGRPLPEADMPSALVRATGAPLHDLRYAIRRPDGQFGILSINAAPLPQAADDARIVISVTDITHAEASAERLRRQAAEDPLTGLANRRALADAVETRLTEAAPFALVMLDLDNFKAVNDLQRHDTGDAVLRIAADRLRAVAGADCLVARMGGDEFMVLAPGTDAASAPRLAEALRAAISAPIEVGRQPVHLAASAGIALHPEHGTSMALLMTGADIALHAAKRAGRNRSVLLSQAQFAAEARRSAITQALAADVEADLRLVFQPQFRACGAFDGAEALLRWTDPRLGEIGPAEFIPIAEEAGLIQRIDAHVAVLAARQLGLWARRGWRHRLAVNASAQTFARAGFAEELLQHLAEEDVCPQQLVVELTDTSLATLSSVADHNIATLRRAGVGIAIDDFGTGYASLSYLHRIEATEIKIDRGFVAGLETAERRDSKPLIQAILSLAHALGLAVTAEGVETERQRSWLSAEGCDRLQGYLLGRPLPVEAFEAAFVTPAAVPG | failed |
| LEAPRDLEAKEVTPRTALLTWTEPPVRPAGYLLSFHTPGGQTQEILLPGGITSHQLLGLFPSTSYNARLQAMWGQSLLPPVSTSFTTGGLRI | not failed |
| MALEQTLKKDWYSILGADPSANMSDLKQKYQKLILLYHPDKQSADVPAGTMEECMQKFIEIDQAWKILGNEETKKKYDLQR | not failed |
| MAAKQGESDPERKETRQKVDDDRKHEIEAAIVRIMKSRKKMQHNVLVAEVTQQLKARFLPSPVVIKKRIEGLIEREYLARTPEDRKVYTYVA | not failed |
| MTETIKCIGCGVEIQTEDKNEVGYAPASSLEKEQVICQRCFRLKHYNEIQDVSLTDDDFLRILNGIGKSDALVVKIVDIFDFNGSWLPGLHRFVGNNKVLLVGNKADLIPKSVKHDKVKHWMRYSAKQLGLKPEDVFLISAAKGQGIAELADAIEYYRGGKDVYVVGCTNVGKSTFINRMIKEFSDETENVITTSHFPGTTLDLIDIPLDEESSLYDTPGIINHHQMAHYVGKQSLKLITPTKEIKPMVFQLNEEQTLFFSGLARFDYVSGGRRAFTCHFSNRLTIHRTKLEKADELYKNHAGDLLSPPTPEELENMPELVKYEFNIREPKTDVVFSGLGWVTVNEPGAKIVAHVPKGVSVSLRKSLI | not failed |
| EIAQVTSAYVASGSEQLSLAPGQLILILKKNTSGWWQGELQARGKKRQKGWFPASHVKLLGPSSERA | not failed |
| MKRKYFPFSAILGQEDLKKALLLNAVNPRIGGVLVRGEKGTAKSTAVRALGALLAAARNGSGGEGEVVVTLPLNATEEMVAGGIDFQQTMKEGRRVFQPGLLAKAHKGILYVDEVNLLDDHLVDIVLDAASSGENRVEREGITLSHPSLFVLAGTMNPEEGELRPQLLDRFGLCVEVRGEADPALRVDLMLRREAFDREPEEFSERYRAEEERLGRTIADAQSLLPSVRIPSHLRGFISELCRNSNVAGHRADLVIEQAARANAALRGSREVSVEDVTKVAGFALVHRRRDPVPPPEQKPQEPERQEEQSRDEQSRQEKPEERGDEPQQPQEGDDRRDGNDDSGNEERSQPENRDAAEQQERPDNEGQDELFSIGQSFRVRSIATPKDRKMRRGSGKRSRSRVSQKQGRYTKSTMPRGNNDIALDATLRAAAPFQRHRENPNGMAVVLQNEDIREKIREKRLGNLLIFVVDASGSMGARGRMAASKGAVMSLLLDAYQKRDKLAMVSFRKNEAFVNLPVTSSIELAARMLKEMPVGGRTPFSAGLLKGYEIAQNYLRKEPGGRPLIILVTDGKANRAIGQGKPLDEVFTISEKISREERIRFLVVDTEEPGLVTFGLAKKIAGLLDAWYYRIDDLRADTLVSIVKTMMP | failed |
| MAYDLWYWDGIPGRGEFVRLALEAGKIPYRDRAREPGEDMLADMRRRRDTAPFAPPYLVADGMTIAQTANILLFLGVEHGLAPPDRAGRLWVNQLQLTIADLTAEAHDVHHPVAAGLYYEDQQDVALRRAADFRETRMPKFMQYFEQALDRPGGWLTDMGRWSYADLSLYHVVEGLLHAFPRRMRTLMHRYPRLMTLHARVAELPELRGYLASDRRLPFGDGIFRHYPELDGA | failed |
| MALVRSLFVSNKILGGSLAGMRKSTSAPKGFLAVYVGESQKKQRYLVLVSYLSQPLFQDLLSKSEEEFGFDHPMGGLTIPCPEDTFLTVTSRIQG | failed |
| MSFSTEIEVRFKHCDPAGIVFFPRYFEMINDVVEDWFANDLGCPFHELVKENGAPTAQIQARFTAPSLHGDVLSFRLTPTRIGNSSLDYDLTAHCGDELRLRATATLVHVARLGRSQPWPQAIRERVAAQIDSALEHHHHHH | failed |
| MSSWMMVPVVFLTAYSDPETIGRARRAGAYGYLLKPYDDRKLRAAVETALRRYRADVRDILKVHETAVRGPVPGVLIVEDEAIIAADLKQKLENAGFRVLGVHDTGEGAIAAASELEPDVVIMDVYIRGEMDGIKAAERIQERYGIPVIYLTAYSDDATLSRILESEPYGYLLKPLNTEQLQAEIEVVLENLRTTEDYSRRVREVLVTKAEEMKIEKTGIFFVSSVITALAVYGFITGSMTWLMYTLFIPTVYSLMHLAFSFGEPEKPSSSAMPMVSIIVPANNEENTIEGCVETLSALDYHVNGERNYEIIVVNDGSTDRTGEILEGLLRKHRHLKAVTRKAPFAFNGRVMPSMMVSPLPRGIL | failed |
| MNNIKRFFRYISKNAKYIDYPLVVTYLLLCLIGLVMVYSASMVAATKGSLTGGISVPGTYFYTRQLMYVIMSLVIVFFMAFFMNVKLLETIRFQKWMMIGIIILLAATLVVGSNINGSKSWINLGFMNLQASELLKIAIILYIPYMIEKKRPKVFKQPKLMTSPIILAGLCIALVLLQRDVGQTLLIMIIFVSILFYAGIGVQKSIKYGLLIIVGVVIIGSLFLIIGLVPDYLTARFSTLTNPFSQESGTGYHISNSLIAIGNGGLLGRGLGNSIMKLGYLPEPHTDFIFSIICEELGLVGGLVVICLLFFIVYRAFELANKTNSYFYKLVCVGVASYIGSQTFVNLGGISGTIPLTGVPLPFISFGGSSMISLSIALGLLLITGKQIRIEAYRKKQANKKKTHIGMTRRY | failed |
| MGAIEDIYEDLETDVPEEEFREAVEEKVEQMGGLADEETAAMLLAHELNENEVNAIADIEPGMDEVKFLAKVMAIGDLKTFERDDEDEDGRVINVEAADESGSLRLAFWDGQAVDIDEGKLEVGDVLRVKGRPKDGYNGLEVSVDKAEPDEDATIDVEPGAGSSIDALTMGQSDVTLRGLVLDTDSIRTFDRDDGSEGRVSNLTLGDETGRIRVTLWDDRADRADELDAGAAVEIIDGYVRERDGSLELHVGDQGAVDEVEDDVAFEPDADPIAEVELEETADIAGVVRSADPKRTFDRDDGSEGQVRNVRIQDATGDIRVALWGDKADKDIAPGDEVLAADVEIQDGWQDDKEASASWNSTIVVLDDGADLATGGAGGGASAETTDAEHAGLSSFGDEGDDTDADSSGNEAAAVSAGTGDTSPDGGAQSAGQQVEFTGTVVQTGDPVVLDDGEQTMSVETGERVQLGQEITVRGELRDDRLHAEDVFLEHHHHHH | failed |
| MAAITTGVVLLRWQLLSAVLMFLASTLNIRFRKSDYIGLAVISSGLGVVSACWFATGLLGITMMDLAAIWHNIEAVMVETMSQTPPEWPMVLT | failed |
| MSSKQHCVKLNDGHLIPALGFGTYKPKEVPKSKSLEAACLALDVGYRHVDTAYAYQVEEEIGQAIQSKIKAGVVKREDLFVTTKLWCTCFRPELVKPALEKSLKKLQLDYVDLYIMHYPVPMKSGDNDFPVNEQGKSLLDTVDFCDTWERLEECKDAGLVKSIGVSNFNHRQLERILNKPGLKYKPVCNQVECHLYLNQRKLLDYCESKDIVLVAYGALGTQRYKEWVDQNSPVLLNDPVLCDVAKKNKRSPALIALRYLIQRGIVPLAQSFKENEMRENLQVFGFQLSPEDMKTLDGLNKNFRYLPAEFLVDHPEYPFVEEY | not failed |
| MMSNGGDSSEIVRELEELKLKKAEIEHRISTLEAKLQDTAAVELYDAVSNGDSYLTAPELEHGLSPDQIYRYSRQLLLPSFAVEACGVGQLGIIDHDVVELNNMHRQIIHTEAFIGHPKVKSAAAACRSINSTIKVDEYVEALRTSNALEILSQYDIIVDATDNPPSRYMISDCCVLLGKPLVSGAALGMEGQLTVYNHNGGPCYRCLFPTPPPTSACQRCSDSGVLGVVPGVIGCLQALETIKLASLVGEPLSERMLLFDALSARMRIVKIRGRSSQCTVCGDNSSFNKQTFKDFDYEDFTQFPLFAGPLNLLPAESRISSKEFKEILQKKEQHVLLDVRPSHHYKIVSLPDSLNIPLANLETRLNELTSALKEKGNGHANTESCTNPSVFVVCRRGNDSQRAVQYLRESGFDSAKDIIGGLEAWAANVNPNFPTY | failed |
| MKVKSISRFFSMKKVTLSFVTLFIGVGTIGSYNQYADASMKTQQTHVTKSSPTQKTTSNFKRSVKDTSVKSRATSIKRATSTKQAISPKTSSTKKTTIAKKSTTVNKTRTTTKTQPTIRKSSTTSTRSKTMPTSVKRTTSHKATTVSPTSKAKISTKTQQSTKSHTTSVKKNTTQLSKTKSPSTSTKSKTVQSSTTKAQPTLSTQVSTTTKAKQFSTPTTSKTDSSKSLVSLASTERKIDKYQSMTQLEKETTEGVDWRKDTKNTGNQVLIVAPHGGSIEQGTTELTKALADKGNYDYYSFEGIRPKNNSELHVTSTHYDDPTLNQMIKNRTATISIHGASGSEEIIYLGGPRSDLRNAIEKQLVARGFTVKVPPEYLGGQNNKNFINREDNNTGVQLELTTALRKAFFKNGDTSTKNRTNKENWTPTMEEFINALYEGINQTYSLEHHHHHH | failed |
| MKDVLAEYASRIVSAEEAVKHIKNGERVALSHAAGVPQSCVDALVQQADLFQNVEIYHMLCLGEGKYMAPEMAPHFRHITNFVGGNSRKAVEENRADFIPVFFYEVPSMIRKDILHIDVAIVQLSMPDENGYCSFGVSCDYSKPAAESAHLVIGEINRQMPYVHGDNLIHISKLDYIVMADYPIYSLAKPKIGEVEEAIGRNCAELIEDGATLQLGIGAIPDAALLFLKDKKDLGIHTEMFSDGVVELVRSGVITGKKKTLHPGKMVATFLMGSEDVYHFIDKNPDVELYPVDYVNDPRVIAQNDNMVSINSCIEIDLMGQVVSECIGSKQFSGTGGQVDYVRGAAWSKNGKSIMAIPSTAKNGTASRIVPIIAEGAAVTTLRNEVDYVVTEYGIAQLKGKSLRQRAEALIAIAHPDFREELTKHLRKRFG | not failed |
| MKGKILDYSVQTNTAIIRTEDQKHYSFLGSAWREWIVPMPGMHVYFELDAQGEVTEVFIDVPEEDTPIAKPILTPVKAFITAPLMVDMQDKQHHTMLEKEAHYCMIDWVIKCFKNALDFKGRARRQEFWSFQFFYTVLGVGMLAFGHFLDLGHTLFIVSSIFMLLPALAVSVRRLHDINRSGWLLLINLVPIVGVLIVIFFFMTEEGDSRANAFGPPSK | failed |
| PEDAINDESDDEDKVDKDDRLPQSDKDKRIVPENEYSDSEDEGEGGRRDNRSYKGQRKRPRLDKDTNSNKASSETSSEIKDEKEKGDGADGEESTASNTNS | failed |
